Like-named read-outs stand apart in the source and are kept apart here.

For test [1], the target named is His6-sP36 purified from homologous expression in M. mazei (Methanosarcina mazei). In words: SEC; analytical gel filtration, ENrich SEC 650; 0.5 mg untagged sP36 or 0.3 mg His6-sP36; eluted with 50 mM phosphate buffer (150 mM NaCl, pH 8.0), 1 mL/min; BioRad size-exclusion standard. A general note: In gel filtration, larger molecules generally elute earlier.
In test [2] the target is small protein 36 (sP36), untagged, purified from heterologous expression in E. coli (Methanosarcina mazei). In words: MST; RED-NHS-labelled untagged sP36 at 100 nM held constant (the methods say 10 nM for the AmtB1 series); AmtB1-His6 (12.5 µM to 0.38 nM) or His6-GlnK1 (7.5 µM to 0.23 nM) in 16 dilutions; concentrations on monomeric mass; standard capillaries, 100% excitation power, medium or high MST power; three biological replicates.

Test [3] has the same target. In words: SEC; analytical gel filtration, ENrich SEC 650; 0.5 mg untagged sP36 or 0.3 mg His6-sP36; eluted with 50 mM phosphate buffer (150 mM NaCl, pH 8.0), 1 mL/min; BioRad size-exclusion standard.
The target in test [4] is PII-like protein GlnK1 with N-terminal His tag (Methanosarcina mazei) (UniProt Q8PYW7). Description: ITC; 20 µM GlnK1 in the cell titrated with 300 µM sP36; 100 mM potassium phosphate, 2 mM EDTA, pH 7.0, 25°C; model for a single ligand binding site. Background: Isothermal titration calorimetry measures the heat released or taken up as one component is titrated into another.

Test [5] concerns the target small protein 36 (sP36), untagged, purified from heterologous expression in E. coli (Methanosarcina mazei). In words: MST; RED-NHS-labelled untagged sP36 at 100 nM held constant (the methods say 10 nM for the AmtB1 series); AmtB1-His6 (12.5 µM to 0.38 nM) or His6-GlnK1 (7.5 µM to 0.23 nM) in 16 dilutions; concentrations on monomeric mass; standard capillaries, 100% excitation power, medium or high MST power; three biological replicates. The source holds these as a separate data set.

Regarding “His6-sP36 purified from homologous expression in M. mazei (natural protein)”, the stoichiometry N in test [1] came out at 6.
In test [2], “ammonium transporter AmtB1 with C-terminal His6-tag (from UniProt Q8U4U2 1-397) (natural protein)” came in with a dissociation constant Kd of 260 nM.
In test [3], “small protein 36 (sP36), untagged, purified from heterologous expression in E. coli (natural protein)” came in with a stoichiometry N of 6. For the same molecule, in test [4], the dissociation constant (Kd) was 5400 nM and the stoichiometry N (sP36 monomers per GlnK1 monomer) worked out at 2.

B1: PII-like protein GlnK1 with N-terminal His tag (natural protein)
chain: MVAMKYVIAMIRPERLDAVKRELQKIEVSRLTVSSVSGYGAQKGYMEIYRAMEYDANLLEKIKIEIAVNDEFLEPTIEAIKTGAKGSDGYVGSGKIFVLPLENVIRIRTNETGPEAI
As for B1, the Kd in test [5] came to 1800 nM.

By stoichiometry N is commonly meant the number of molecules, sites or subunits per partner or assembly. In general, Kd refers to the constant that tells how readily two partners part at equilibrium.

(Values after article PMC10714827.)
